Laboratory results taken from the DeepSol protein solubility set.

test: soluble on expression in E. coli; label from the status in PepcDB or PDB records

| Sequence | soluble on expression in E. coli |
| --- | --- |
| LTPILGYGRVRAKVSADIDFTSYEQTQELFNPELSALRSEQTMQESRNASNEASGVPGTLSNTPQPNSSLGQKNNPQQNATPNNLPQQTSSDQMQAKDVRMQTTKNFELDKTISHTKNQPGTIKRLSVAVLVDNRPVMNDKTKKLEKKPLTKEEIEQIKLLVSDAIGLNVKRGDSLNVINSSF | not soluble |
| LVCRGSNEPTYCLCHQVSYGEMIGCDNPDCPIEWFHFACVDLTTKPKGKWFCPRCVQEK | soluble |
| LVPRGSHMTNDTSGVLTIATTHTQARYSLPEVIKAFRELFPEVRLELIQGTPQEIATLLQNGEADIGIASERLSNDPQLVAFPWFRWHHSLLVPHDHPLTQISPLTLESIAKWPLITYRQGITGRSRIDDAFARKGLLADIVLSAQDSDVIKTYVALGLGIGLVAEQSSGEQEEENLIRLDTRHLFDANTVWLGLKRGQLQRNYVWRFLELCNAGLSVEDIKRQVMES | soluble |
| LYIRGLQPGTTDQDLVKLCQPYGKIVSTKAILDKTTNKCKGYGFVDFDSPSAAQKAVTALKASGVQAQMAKQ | soluble |
| MAAAVRQDLAQLMNSSGSHKDLAGKYRQILEKAIQLSGTEQLEALKAFVEAMVNENVSLVISRQLLTDFCTHLPNLPDSTAKEVYHFTLEKIQPRVISFEEQVASIRQHLASIYEKEEDWRNAAQVLVGIPLETGQKQYNVDYKLETYLKIARLYLEDDDPVQAEAYINRASLLQNESTNEQLQIHYKVCYARVLDYRRKFIEAAQRYNELSYKTIVHESERLEALKACTGTAPILVSAGDSSALGGRAIFFKDKRCQQLAAYGILEKMYVDRIIRGNQLQEFAAMLMPHQKATTADGSSILDRAVIEHNLLSASKLYNNITFEELGALLEIPAAKAEKIASQMITEGRMNGFIDQIDGIVHFETREALPTWDKQIQSLCFQVNNLLEKISQTAPEWTAQAMEAQMAQ | soluble |
| MAAPAALKRISATVWELPVSYKKGMLVPARIIATEKLINAMDAGVFEQVSNVACLPGIQKYAFCMPDGHWGYGFPIGGLAAMDPETGVISPGGIGFDINCGMRLVLTTLTYEEVKPRLRELVDALFYRVPAGVGSHGFVRLSHDEFCRVAEQGSSWCLKHGYAWPEDLEMTEEHGCFTGADATKVSQRAVDRGYNQIGTLGSGNHYLEVQVARPENIFDEDTARAFGITVPNQVVIMFHCGSRGFGHQVATDYLQLFLSVMEKKYGIRTNDRELACAPFRSREGQDYFAAMKCAVNMAFANRQVILHRIREVFSDVFGRDPGDLGMDMVYDVAHNTAKLETHLVDGKKRELLVHRKGATRAFGPGMEGIPARYRETGQPVIIGGSMETGSYLLAGDPGGGDTFFTTAHGSGRTMSRHQAKKLIKGQKLQRDMEERGIYVRTASWGGLAEEAGQAYKNIDDVAEATELSHLSRRVARLVPIGNVKGLEHHHHHH | not soluble |
| MAAPVAPSEPQASRAPQPPVCLLVLGMAGSGKTTFVQRLTGHLHNKGCPPYVINLDPAVHEVPFPANIDIRDTVKYKEVMKQYGLGPNGGIVTSLNLFATRFDQVMKFIEKAQNTFRYVLIDTPGQIEVFTWSASGTIITEALASSFPTVVIYVMDTSRSTNPVTFMSNMLYACSILYKTKLPFIVVMNKTDIIDHSFAVEWMQDFEAFQDALNQETTYVSNLTRSMSLVLDEFYSSLRVVGVSAVVGTGFDELCTQVTSAAEEYEREYRPEYERLKKSLANAQSNQQKEQLERLRKDMGSVALDPEAGKGNASPVLDPSDLILTRGTLDEEDEEADSDTDDIDHRVTEESREEPAFQNFMEESMAHWKRNK | not soluble |
| MAAQQPLSQEQLLHFWGAHNTMGKMTRRTSQSDGGKPSGNSNAAGGAGTKPKVATPQVVAKIEQYKRDNPTIFAWEIREKLISEDVCTTPPSVSSINRILRTRAAERAAEELQMILSAQHLARPRAQQVRLPPAFPFPFPLVWPGLLPNPAQLSLLLNSGALAPPVQSGGAGGPGVFGNSGQISVDSNLNLSEDDSTLGANARRLSRSTFTNEQLQSLEEVFLRDPYPSPNERADLVKRTNLPEARIQVWFSNRRAKWRKTNANGSDRDELRAERSETDDALSISSQSPSPGGGQETGSDEGKKKTITLFKPYE | not soluble |
| MAARHAVRGGTVYGGGNGYRVNLVGRGTGGSTMVHHQPLNRISSQRSVAPVGRVLNRGALRNGAQQPLHVSTSSPAFHYMEEQPSPTTNGMVIQAKTPGAGVIQARHMQSQQSFPSGGPARVLMNRSSTNAGLSRMVGGGYDQQLPTAPNGRLMIPSTAVRVPGSGMASPRLQTTPQPLTKSQKAKDEMKMAYQVGREEALQQRRNDLEDDEENLGYAETYSEYTPAKLRSGMAHPDSVVESASLSSVSPPDVKYQISIPEYLIDMGHISALQLEAVIYACQMHERRMPSGERYGYLIGDGAGVGKGRTVACIIFENYLQGRKRAIWLSVSSDLKFDAERDLRDCGAPNIPVYALNKMKYAKISGKENGSIKKGVMFATYTSLIGECRGAKSRKYRSRISQLIQWFGQDYDGVIILDECHRAKNLVPTAGAKPTKTGRMVLELQKALPNARVVYASATGATEPRNMAYMTRLGLWGERQAFPEFHDFISAVERRGVGAMEIVAMDMKQRGLYLARQLSFRGVSFAVQEVQLSSEFVKMYDAAVKLWMEARRQFQTVIETMDEEERSTCKTVWGQFWACHQRFFKYLCIAAKVDTCVQLSREAIKAKKCVVIGLQSTGESATLETLEEMGGELNEFVSTAKTVLYGLIDKHFPTDASFSMGDRDIFKDFDDFERPAKRRKTRETLSFLGDVGFDTWTGVTTGMGGRVGDGVTKNITRGLSGIGRSSMSSSTGNTNNEDANSTTSESSDGSDDEVENDMISENGGESGDLESAREEAEGARTLEDGEQDEWVKALLAEAESSSDDSDEEVVKDEDEDEEAESKSGETHEQEEEFNPFMCDFTNDDPWAHNQQIVEDTPQKDRKAKKRKRDEEEAERLREKVRKREERREKKRRRAIRRAEREKQRRNEELQARGSATDFITSSRICGNGSGEQDDINPMLIKTELLAAVERLAPSLPANTLDQLIDEMGGPEYVAEMTGRRGHMVTSETGDVMYQRRNANAEVSLELINMEEKEKFMRGEKLIAIISEAASSGISLQSDRRAINKRRRVHITLELPWSADKAIQQFGRTHRSNQVSGPEYVFLISELAGEKRFASIVAKRLESLGALTHGDRRATETRDLSQFNMDNKYGRVALDTLLKTVIGQAGTPLIDPPKDYKAGEFFEDMRLYMEGVGLLAKNKTGQYTIEKEAATIPKFLNRILGLPVHAQNSLFHYFSEIVAELIAQSKHDGTYDTGIMDLGTGDDQVRKLETRVFTGRVDNGSFRVEIHKIGVERGVSWEEAMELHKEHSNDDDGFYICHPGGANTANTKKVAALVYGIGKIRMDNGARLYAITRPSTGRSPKLMTMADLSKRFHKVSIDEAKEVWKQQYDSAANMCQHNYVYGKCRTESNGTYCEVGRRTRTYFVLSGSVLSVWPIVEEVLAGSDRKSSRMQVIRVRTEQDQKIVGKLVVFFGK | not soluble |
| MAARPKLHYPNGRGRMESVRWVLAAAGVEFDEEFLETKEQLYKLQDGNHLLFQQVPMVEIDGMKLVQTRSILHYIADKHNLFGKNLKERTLIDMYVEGTLDLLELLIMHPFLKPDDQQKEVVNMAQKAIIRYFPVFEKILRGHGQSFLVGNQLSLADVILLQTILALEEKIPNILSAFPFLQEYTVKLSNIPTIKRFLEPGSKKKPPPDEIYVRTVYNIFRP | soluble |
| MAASITAITVENLEYPAVVTSPVTGKSYFLGGAGERGLTIEGNFIKFTAIGVYLEDIAVASLAAKWKGKSSEELLETLDFYRDIISGPFEKLIRGSKIRELSGPEYSRKVMENCVAHLKSVGTYGDAEAEAMQKFAEAFKPVNFPPGASVFYRQSPDGILGLSFSPDTSIPEKEAALIENKAVSSAVLETMIGEHAVSPDLKRCLAARLPALLNEGAFKIGN | soluble |
| MAASMTKPISITSLGFYSDRKNIAFSDCISICSGFRHSRPSCLDLVTKSPSNNSRVLPVVSAQISSDYIPDSKFYKVEAIVRPWRIQQVSSALLKIGIRGVTVSDVRGFGAQGGSTERHGGSEFSEDKFVAKVKMEIVVKKDQVESVINTIIEGARTGEIGDGKIFVLPVSDVIRVRTGERGEKAEKMTGDMLSPS | not soluble |
| MAATMNEGNAQHAWDLMKKITFAMLATRDGEKIRSRPMAAYVRPEEGAIYFLTDVRRHKDEEIAQDHHVNLGFANASAQKYVSVTGYAAISNDRAKIKELFGTEAKAWWDSADDPNIRVLKVTPEEAEYWDSPGSLISYAKMMVAAATGNRPDLGENAKVAI | not soluble |
| MAAVTELPKMNQELAGAVREGLELKKVETTEKNVLPTKEDVAEEKQHVERIHEIEHFDSTKLHSTPVKEKIVLPSADDIKQEKQHLELTDKINNFPSENLKKTETIEKNVLPSPTDVAREKTLQMAASFDKSALHHVETIVSTDVRVTEAQ | soluble |
| MAAVVKSVALAGRPTTPDRVHEVLGRSMLVDGLDIVLDLTRSGGSYLVDAITGRRYLDMFTFVASSALGMNPPALVDDREFHAELMQAALNKPSNSDVYSVAMARFVETFARVLGDPALPHLFFVEGGALAVENALKAAFDWKSRHNQAHGIDPALGTQVLHLRGAFHGRSGYTLSLTNTKPTITARFPKFDWPRIDAPYMRPGLDEPAMAALEAEALRQARAAFETRPHDIACFVAEPIQGEGGDRHFRPEFFAAMRELCDEFDALLIFDEVQTGCGLTGTAWAYQQLDVAPDIVAFGKKTQVCGVMAGRRVDEVADNVFAVPSRLASTWGGNLTDMVRARRILEVIEAEGLFERAVQHGKYLRARLDELAADFPAVVLDPRGRGLMCAFSLPTTADRDELIRQLWQRAVIVLPAGADTVRFRPPLTVSTAEIDAAIAAVRSALPVVT | soluble |
| MACGLALKRPLQHEYESFLTDETYNGEAKRARTQCPPFRAQMGTIAATLPSTSTFAQKFKEQEESVFQAATLMTRLSRNQLKTYLSSEVKNLRKRKAIPRSNDFDDDGDQRGDGCSSNYSKAYRAPSSPKSGSDSEGEAPSTSVTDRSSAKREFTMANVQMICERLLKQQEIRLRNEFEMVLTKKLDEQHQQYVQFAAEQLNSKCVSTGDDYSYSYLS | not soluble |
| MADAAPQLGKRKRELDVEEAHAASTEEKEAGVGNGTCAPVRLPFSGFRLQKVLRESARDKIIFLHGKVNEASGDGDGEDAVVILEKTPFQVEQVAQLLTGSPELQLQFSNDIYSTYHLFPPRQLNDVKTTVVYPATEKHLQKYLRQDLRLIRETGDDYRNITLPHLESQSLSIQWVYNILDKKAEADRIVFENPDPSDGFVLIPDLKWNQQQLDDLYLIAICHRRGIRSLRDLTPEHLPLLRNILHQGQEAILQRYRMKGDHLRVYLHYLPSYYHLNVHFTALGFEAPGSGVERAHLLAEVIENLECDPRHYQQRTLTFALRADDPLLKLLQEAQQS | soluble |
| MADIVVDGIRATYNIRGESAALLCPPHPLMGGSRFDVRLERIAAELTKRNVSVLRFDYQRPFRSGIGEVEDAKKCVAYLKDRHDKIAVIRYSFGSVVASNVAEYCDAAVYISPLPEINSIYFKDAEIPKLFIIATRDQFVSLEESVKLYEQASKPKEVVKVETDHFYFGKFDFIAKITADFIERQSF | soluble |
| MADKIKVSLLGSTGMVGQKMVKMLAKHPYLELVKVSASPSKIGKKYKDAVKWIEQGDIPEEVQDLPIVSTNYEDHKDVDVVLSALPNELAESIELELVKNGKIVVSNASPFRMDPDVPLINPEINWEHLELLKFQKERKGWKGILVKNPNCTAAIMSMPIKPLIEIATKSKIIITTLQAVSGAGYNGISFMAIEGNIIPYIKGEEDKIAKELTKLNGKLENNQIIPANLDSTVTSIRVPTRVGHMGVINIVTNERINIEEIKKTLKNFKSLPQQKNLPTAPKQPIIVRDEEDRPQPIIDVNAESGMAVTVGRIRHENNVLRLVVLGDNLVRGAAGITILTVEVMKELGYI | soluble |
| MADKREPAPGWPILKGEYEVGDVKNSVLVITCGSHLPGKPILDAGAACTGSCKTENLGIEKVVAHIISNPNIRYLLVTGSEVKGHITGQSMMSLHANGVKENRIAGALGAIPYVENLNAAAVARFQEQVQVVNLLDTEDMGAITSKVRELASKDPGAFDADPLVVEISEEGEEEEEGGVVRPVSGEIAVLRSRLKAIEARMMDI | not soluble |
